# Measurements published in the DeepSol protein solubility set.
# Assay: soluble on expression in E. coli; label from the status in PepcDB or PDB records
row,Sequence,soluble on expression in E. coli
1,MSLDNQLRPTLHYQAQNPHRRVLVTGATGYIGGRLITELLAAGFQVRATSRKKTSLQRFDWYEDVEAVEADLTDATELDTLFKDVDVVYYLVHSMGGKNVDFEEQEQRTAENVIQAADQAGIKQIVYLSGLHPRNRKIEELSKHMRSREKVAQILLAGQTPALILRAATIIGSGSASFEIIRHLTERLPRMIAPQWITNQIEPLAIRDVLHYLISAADLKDPVNRSCDIGCGKSYEFADLLRIYADVRGLKRHVNSVPLNLPMDKLSGLWISLVTPVPFQLSFPLAQSMAEDAVTEEHSIKDIISDPPDGFIEYREAVELALAAEFDRGVPTSWDRSWTVQQPWAGQPTDPEWAGKAVYEDVRTEDTDLRAAQVWPIIEGLGGVNGWYSAPLLWRLRGIADRLIGGPGLGGRRDPRHLKLGDRIDWWRVTEIDPPHRLVLTAEMKVDGGAWLILEVADKENGGCTYTQRAIFEPKGEGHHHHHH,soluble
2,MGSDKIHHHHHHMKTRQEALDYGLSFPNTYQEAPFHDPNWQLIRVKDSKKVFLWTYERNGFINLNVKVSPAWRDFWRDAFPSVIPGWHQNKDNWNTIILDGSIPDDAIKNMISDSYDLVTYNPTRLIYEAVKRIPKGCVATYAQVAELAGNKKMCRAVGNALHKNPNPDEIPCYRVVNAKGELSGAFAFGGADEQANRLRADGIEVIDGRVDLDKYGIRIVDDVIYTKTTVEPLT,not soluble
3,MTKAADDNIIVGLDIGTATVSALVGEILPDGQINIIGAGSSPSRGMDKGGVNDLESVVKSVQRAIDQAELMAECQISRVFISLSGKHIASRIEKGMGTISDEEVSQEDMDRAIHTAKSIKIGDEQ,not soluble
4,RCGAGEPWGNATNLGVPCLHWDEVPPFLERSPPASWAELRGQPHNFCRSPDGAGRPWCFYRNAQGKVDWGYCDCGQG,soluble
5,MGSDKIHHHHHHMAATNYSQTIKNDTKDFITTAILQLLGIQKTFEKPKNLAQLTVSNVCKRAGVSRMAFYRNFESIDQVIYQYYQPQISQSFEIIRQNVSASSKIENQLKFFEEFKDDLFLSESQGYEPIIRQIYIEEIEKFYEKTNDEYFITFVANGVYALWRKWLMNGQDKSIEEIHELIRKIVTI,not soluble
6,MIQRDIEYSGQYSKDVKLAQKRHKDMNKLKYLMTLLINNTLPLPAVYKDHPLQGSWKGYRDAHVEPDWILIYKLTDKLLRFERTGTHAALFGLEHHHHHH,soluble
7,STLKGALSVKFDVKCPADKFFSAFVEDTNRPFEKNGKTEIEAVDLVKKTMTIQMSGSEIQKYFKTLKGSIAVTPIGVGDGSHVVWTFHFEKVHKDIDDPHSIIDESVKYFKKLDEAILNFKE,soluble
8,GMTNTTYVQEYHAIVEVLSKYNEGGKKADSTIMRPAFSSQATIFGVDVDNKLTGGPIQGLFDVIDNVFHPSPEAKAAIARIDIVGTAASARIDTDDISGFRFTDFFNLLKVEGKWTVVSKIYHTHPSA,soluble
9,MLGGYAHRIARIDLSTGQVEYFAPDPKDLEMYVGGRGLGVKYVFENGPQVDPLGPENLLCIMNGPLSGTRAKMSGRLAVVTKSPLTGTVTDSHMGGWTAAKLKWAGFDGLLIKGASEKPVYLLVKDGEVSIHDASDLWGKTTHETCRILRERHGEEADVMAIGPAGENLVRFANWINNDERAAGRGGTGAVAGSKKLKAIVVVGTHDKMPQPKDPELWKEADRLASATINDPKNVTAPKKGGLSLYGTNVLMNITNVMGALPTFNAQHTCIEGAEKISGEYIREHRLIKDNTCHACPVACKKMVEVHINGKTIRFESYEYESAWALGAHSGHTDTDWTGYAIYLCNAYGMDTIEAGNAIAVLMEATEKGYYQGEDGIRFGDKEGEIRVLEAIAYRKGVGDMLAEGPARFAKAIGHPEIALEVKGQSIPAYDPRGLKGMGIAYATSNRGACHLRAYTPASEILGVPYKTDPLAWEGKGKLTKLFQDLSAFTDSLDLCKFSQFAEGPEEYAKQLAAYWGRPVTPEEILRIGERIYNLERYYNNLAGWGEGSDYLPERFLKEPSDCAGSKGQVTELDRMLEEYYRERGWERGVVPPAKLQELGILSQAADD,soluble
10,MGHHHHHHSHMKNYKAIGKIGEGTFSEVMKMQSLRDGNYYACKQMKQRFESIEQVNNLREIQALRRLNPHPNILMLHEVVFDRKSGSLALICELMDMNIYELIRGRRYPLSEKKIMHYMYQLCKSLDHIHRNGIFHRDVKPENILIKQDVLKLGDFGSCRSVYSKQPYTEYISTRWYRAPECLLTDGFYTYKMDLWSAGCVFYEIASLQPLFPGVNELDQISKIHDVIGTPAQKILTKFKQSRAMNFDFPFKKGSGIPLLTTNLSPQCLSLLHAMVAYDPDERIAAHQALQHPYFQEQRKTEKRAL,not soluble
11,MGSDKIHHHHHHMSEDILPITISLAGEKDTIRLGEDLALALKPGDCLTLIGDLGAGKSTLARAFIRAMADEPDLEVPSPTFTIIQTYTTRIPVAHLDLYRLSDVSELDELGIDEMLEDGICLIEWPDIAAEVLPPAQTITLQLTHSGEGRVAVIEAPAQQKARLDRVFAIREFLAKNGRGDATRRFLSGDASTRAYETISTDGPDLILMDWRRPMRGAIVADGKTYAEIVHLAQDARSFVAIGDYLRNSGFRAPEILAADIDQGILLLEDLGREGVLAADGTPIEERYLQSVACLATLHQTPRPALLPMRDGSTYDIPSFDRQAMKIEVSLLVEWYLPHKRGKALTDGEKQDYYAIWDGLIDALAGCETGLLLRDFHSPNILWQAQNSGIGQVGLIDFQDAMIGPTAYDLASIVQDARVTIPPELQTRLMSHYLNSRKATPAFDEAAFLKAFAIMSAQRNCKLAGIWVRLLERDKKPGYMKHMPRTFRYLADALSHPELAPLREWCVRMGMDFND,not soluble
12,GVKCEPIEELTISVPEEYSSKMIDMVTRRKGDLVSMETQGDRVNIEFDMPSRGIIGLRTNVLTASAGEAIMAHRFKCYQPYKGEIERRSNGSMIAMESGTAFAYAIDKLQDRGKFFIYPQDEVYAGQV,not soluble
13,MSLRFNVLKYIRTTKANIQTIAMPLTTKPLSLKINAALFDVDGTIIISQPAIAAFWRDFGKDKPYFDAEHVIHISHGWRTYDAIAKFAPDFADEEYVNKLEGEIPEKYGEHSIEVPGAVKLCNALNALPKEKWAVATSGTRDMAKKWFDILKIKRPEYFITANDVKQGKPHPEPYLKGRNGLGFPINEQDPSKSKVVVFEDAPAGIAAGKAAGCKIVGIATTFDLDFLKEKGCDIIVKNHESIRVGEYNAETDEVELIFDDYLYAKDDLLKWEGHHHHHH,not soluble
14,MSALTLKGTSYKMCTDKMSFVKNPTDTGHGTVVMQVKVPKGAPCKIPVIVADDLTAAINKGILVTVNPIASTNDDEVLIEVNPPFGDSYIIVGTGDSRLTYQWHKEGSSIGK,soluble
15,MTNVFHHVRNFIEQQPAPAKTLEKSSSPNILYTALPKHWRSNKSFQEPFYVVLLTPVPDNTEVSIWAGNDEKPCEEVRNEKAKVHRQVAKFNDLRFVGRSGRGRKFHLTIVIHSAPMMVATVKNVIKVTVDGPRDARIPKPQGSLKRQAEQQTIFPNDIIRTPGPPMPMTMIPPPWFPLPMTQTFPPSFFPLISPGPHPSISAALWKIHSESMKTPIKQKVEQENVSLNTSTCLSSPSIFITPTSDDRKLKRPSSPRSITKSSETSINLIQETPESVESKRRRNVSITSSNSSSPTIWRPF,not soluble
16,MAVDDAQALALFLRDRTGRSSHTLRAYGAELRRLMRWCGTHGFGPFSDLTRQQLLAYRHTLEHGSSGTANTTPPLSEATRTRALAVVASLYGYWYATGYLHANPAAGLSAGSRLEHHHHHH,not soluble
17,MSLMNKSQQVQTITLAAAQQMAAAVEKKATEINVAVVFSVVDRGGNTLLIQRMDEAFVSSCDISLNKAWSACSLKQGTHEITSAVQPGQSLYGLQLTNQQRIIIFGGGLPVIFNEQVIGAVGVSGGTVEQDQLLAQCALDCFSALEGGSHHHHHH,soluble
18,VDVRAIMTPPAHQDGGKHDVDARGPCGLTPLMIAAVRGGGLDTGEDIENNEDSTAQVISDLLAQGAELNATMDKTGETSLHLAARFARADAAKRLLDAGADANCQDNTGRTPLHAAVAADAMGVFQILLRNRATNLNARMHDGTTPLILAARLAIEGMVEDLITADADINAADNSGKTALHWAAAVNNTEAVNILLMHHANRDAQDDKDETPLFLAAREGSYEACKALLDNFANREITDHMDRLPRDVASERLHHDIVRLLDEHVPRSPQMLSMTPQAMIGSPPPGQQQPQLITQPTVISAGNGGNNGNGNASGKQSNQT,soluble
19,MERKMATHFARGILTEGHLISVRLPSQCHQEARNIPPHRQSRFLASRGLLAELMFMLYGIGELPEIVTLPKGKPVFSDKNLPSFSISYAGNMVGVALTTEGECGLDMELQRATRGFHSPHAPDNHTFSSNESLWISKQNDPNEARAQLITLRRSVLKLTGDVLNDDPRDLQLLPIAGRLKCAHVNHVEALCDAEDVLVWSVAVTPTIEKLSVWELDGKHGWKSLPDIHSRANNPTSRMMRFAQLSTVKAFSPN,not soluble
20,MRSMKVFISIGVVLSVVNCIFFDHGDSSDGSYSDSSGEGRGHHHKHGPRPPRPNRPPRPPPATPPPTTPAPSCPGGWSLIHRRRGPWCIQVFNGAAGLEGSNNACRAQGAVLSSVENAQERETIARLGLEKMLPTGWKYGTIRVGLRKNSQGAPWYNTDGSTDANNLEGVLWSPAEPRNGNWGGVQLNCATMWLWGGIFEGGRIHGQFFTNICLANNPNDRYRGYVCGKPA,not soluble
21,SNSSPPPANSANGDTTNNGENGQDLNLNFLDKIRLSTKRDAKEDEGEELPTELNTINSAGGFLVVSPDKLSVKYTNTNLHGHDVGVVQANKPAPIKCLTYYFEIFVKDSGIKGQIAIGFTKESFKMRRQPGWEVNSCGYHGDDGYLYRGQGKGEPFGPKFTKDDAVGGGINYASQEFFFTKNGTIVGKIPKDIRGHLFPTVAVHSQNEEVLVNFGKKKFAFDIKGYEASERNKQQLAIEKISIPPNIGYGLVKTYLLHYGYEETLDAFNLATKNTVPPIHIDQENAIDEDDSSYALKQRKNLRQLVRNGEIDTALAELQKLYPQIVQDDKSVVCFLLHCQKFIELVRVGKLEEGVNYGRLELAKFVGLTGFQDIVEDCFALLAYEKPEESSVWYFLEDSQRELVADAVNAAILSTNPNKKDVQRSCHLQSHLEKLLRQLTVCCLERRSLNGDQGETFRLRHVLNNNR,soluble
22,MSLGMDEKSVAIVFPHHLLEDHPAAGKTSGFILVEDQLFFGDPVFGLRFHKNKLVLHRASMRYYHDHLKSRGLKAEYIQYSPDPHMGYLRDHLEGYDRVYTLELLDHELEARMKKLSMELGLEITEIEAPFIFRRNLMDGYFRDGRFLLRSFYIRERKRLSILMENSRPAGGKWTFDTENRKRMPPDLQVPAPVKLPENEYVQEAKEYVSEKFPDNPGSMDRFNYPEGHHHHHH,soluble
23,MGSDKIHHHHHHMGASFNQAGFVKRIFTSHGTTLFVDTSSGELRHGLMEYSPNNVLLTKDGKSAHIRFVDGPTDIVYFTEYSAISGSKRIDGIDALNLMPDNTLTIVDLPRNKFGLVQNGTFLSARSDGRITLSAPLCRGWENFHFRKDASEVSGVIVSHRIDGKIITFFIQDRTDIIQSILFGGDFYERDTLDLIRDRSTPGKVFVDIGANIGNHSIFMSKFCSPSEVIVFEPNPKAIEILKLNVLLNACANINTSYLGLALGSKAAQMRVFSPDPNNMGRAQMLDDDDGNVKCVAGDLLLQQKPVGLLKIDVEGSEFEVLRGMQGTIETWRPNILIEVWPQSQQDLFSWCDSFRYVVQETFPTDNNYFLAPIERQS,not soluble
